The assay addresses T1, human Notch1-derived receptor overexpressed on CHO-K1 cells (human, UniProt P46531 19-1762, limits assumed).
T1 construct: Cells also express H2B-mTurq; also called Notch1 receptors
Nature of the assay: fluorescence microscopy of JFX650-labelled probody on CHO-K1 cells overexpressing a human Notch1-derived receptor. As to the method:
FIGS. 36A and 36B present data showing Cleavage-Dependent Binding of a Brontictuzumab-Based Probody to Notch1 Receptors. A probody containing a brontictuzumab-based scFv was fused to a TEV cleavable linker and a soluble form of the human Notch1 NRR. Probodies containing either (FIG. 36A) the V1667D NRR mutant NRR, or (FIG. 36B) wild-type NRR were tested. The probodies also contained a HaloTag for labeling with a JFX650 dye. Binding of the probody to Notch1 receptors was tested using uncleaved and TEV protease-cleaved probody. The evaluated cells were based on CHO-K1 celle overexpressing a human Notch1-derived receptor; cells also expressed H2B-mTurq as a fluorescent marker (inset). Brontictuzumab is an antibody that binds the NRR from Notch1 (NRR1). Brontictuzumab (aka OMP-52M51) is originally from Oncomed Pharmaceuticals. This antibody is distinct from the Genentech anti-NRR1 used in our receptor and other Notch1 probody designs.

T1 sequence (P46531 19-1762 limits assumed): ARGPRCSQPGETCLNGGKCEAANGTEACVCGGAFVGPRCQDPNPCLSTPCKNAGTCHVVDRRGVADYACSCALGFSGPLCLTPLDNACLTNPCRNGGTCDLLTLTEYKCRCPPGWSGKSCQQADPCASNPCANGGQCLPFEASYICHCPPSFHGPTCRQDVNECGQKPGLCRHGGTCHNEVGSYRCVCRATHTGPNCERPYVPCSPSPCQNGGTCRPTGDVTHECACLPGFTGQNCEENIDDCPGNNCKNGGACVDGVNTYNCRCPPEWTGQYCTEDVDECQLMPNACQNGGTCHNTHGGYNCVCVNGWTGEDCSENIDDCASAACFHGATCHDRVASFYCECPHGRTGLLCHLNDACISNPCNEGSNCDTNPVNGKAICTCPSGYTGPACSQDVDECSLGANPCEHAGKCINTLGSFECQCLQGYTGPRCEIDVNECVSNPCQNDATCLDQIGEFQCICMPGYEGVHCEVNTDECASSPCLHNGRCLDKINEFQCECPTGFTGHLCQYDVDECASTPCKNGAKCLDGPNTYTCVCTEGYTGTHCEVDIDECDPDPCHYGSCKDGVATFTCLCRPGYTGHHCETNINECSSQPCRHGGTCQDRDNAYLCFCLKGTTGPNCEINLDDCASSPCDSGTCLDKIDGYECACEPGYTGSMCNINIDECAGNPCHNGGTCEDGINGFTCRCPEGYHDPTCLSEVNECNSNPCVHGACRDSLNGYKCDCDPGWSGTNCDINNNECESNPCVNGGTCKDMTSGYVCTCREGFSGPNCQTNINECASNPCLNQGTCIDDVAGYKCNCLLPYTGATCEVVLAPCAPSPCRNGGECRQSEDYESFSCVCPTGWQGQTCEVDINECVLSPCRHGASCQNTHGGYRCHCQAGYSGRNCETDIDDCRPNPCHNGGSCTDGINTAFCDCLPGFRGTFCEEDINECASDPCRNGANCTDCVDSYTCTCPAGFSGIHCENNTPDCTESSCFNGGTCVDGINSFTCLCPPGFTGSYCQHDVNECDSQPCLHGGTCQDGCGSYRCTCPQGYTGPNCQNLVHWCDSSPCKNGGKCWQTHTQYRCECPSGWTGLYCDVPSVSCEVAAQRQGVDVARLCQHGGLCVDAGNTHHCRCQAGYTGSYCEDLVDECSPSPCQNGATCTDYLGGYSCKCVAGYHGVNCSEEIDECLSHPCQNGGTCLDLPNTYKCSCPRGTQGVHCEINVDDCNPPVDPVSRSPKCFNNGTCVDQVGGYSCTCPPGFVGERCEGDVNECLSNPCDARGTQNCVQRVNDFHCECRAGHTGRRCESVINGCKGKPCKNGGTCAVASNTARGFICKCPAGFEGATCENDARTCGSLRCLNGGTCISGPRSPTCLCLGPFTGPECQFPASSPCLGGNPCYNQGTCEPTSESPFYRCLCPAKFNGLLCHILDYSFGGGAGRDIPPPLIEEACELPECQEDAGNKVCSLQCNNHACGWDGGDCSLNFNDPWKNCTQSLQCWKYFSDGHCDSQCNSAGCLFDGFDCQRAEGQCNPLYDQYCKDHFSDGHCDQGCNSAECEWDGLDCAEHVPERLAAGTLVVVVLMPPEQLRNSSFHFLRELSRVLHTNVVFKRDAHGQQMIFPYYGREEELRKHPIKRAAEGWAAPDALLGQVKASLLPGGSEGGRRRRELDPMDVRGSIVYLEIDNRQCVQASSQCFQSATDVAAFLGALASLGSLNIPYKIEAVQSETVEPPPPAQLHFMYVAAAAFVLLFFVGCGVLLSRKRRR

B1: TEV-cleavable Anti-Notch1 probody, with brontictuzumab scFv, Wild-type NRR (HaloTag-brontictuzumab-scFv-TEVcs-hNRR1^WT), intact (uncleaved) (other)
chain: YPYDVPDYATGMAEIGTGFPFDPHYVEVLGERMHYVDVGPRDGTPVLFLHGNPTSSYVWRNIIPHVAPTHRCIAPDLIGMGKSDKPDLGYFFDDHVRFMDAFIEALGLEEVVLVIHDWGSALGFHWAKRNPERVKGIAFMEFIRPIPTWDEWPEFARETFQAFRTTDVGRKLIIDQNVFIEGTLPMGVVRPLTEVEMDHYREPFLNPVDREPLWRFPNELPIAGEPANIVALVEEYMDWLHQSPVPKLLFWGTPGVLIPPAEAARLAKSLPNCKAVDIGPGLNLLQEDNPDLIGSEIARWLSTLEISGGGGGSTGDGGGGQVQLVQSGAEVKKPGASVKISCKVSGYTLRGYWIEWVRQAPGKGLEWIGQILPGTGRTNYNEKFKGRVTMTADTSTDTAYMELSSLRSEDTAVYYCARFDGNYGYYAMDYWGQGTTVTVSSGGSSRSSSSGGGGSGGGGQAVVTQEPSLTVSPGGTVTLTCRSSTGAVTTSNYANWFQQKPGQAPRTLIGGTNNRAPGVPARFSGSLLGGKAALTLSGAQPEDEAEYYCALWYSNHWVFGGGTKLTVLGSNSGGTLEGGGSGENLYFQGGGGGRTGGGSEQKLISEEDLGGGSILDYSFGGGAGRDIPPPLIEEACELPECQEDAGNKVCSLQCNNHACGWDGGDCSLNFNDPWKNCTQSLQCWKYFSDGHCDSQCNSAGCLFDGFDCQRAEGQCNPLYDQYCKDHFSDGHCDQGCNSAECEWDGLDCAEHVPERLAAGTLVVVVLMPPEQLRNSSFHFLRELSRVLHTNVVFKRDAHGQQMIFPYYGREEELRKHPIKRAAEGWAAPDALLGQVKASLLPGGSEGGRRRRELDPMDVRGSIVYLEIDNRQCVQASSQCFQSATDVAAFLGALASLGSLNIPYKIEAVQSETVEPGSLVPRGSSHHHHHHGPV
modifications: HaloTag labelled with JFX650 dye
notes: also called Brontictuzumab-based probody, wild-type NRR
As for B1, the binding result is listed as “no binding”.

Source of the values: patent US20250289885A1 (TRUSTEES OF BOSTON UNIVERSITY, published 2025).
